# Reference: US20220185910A1 (EUREKA THERAPEUTICS, published 2022)
# Target: T1, human prostate specific membrane antigen (PSMA) (human, UniProt Q04609 1-750)
# T1 construct: PSMA was on the cell surface: LNCaP and 22Rv1 (endogenous), PC3-PSMA and Jurkat-PSMA (lentiviral transduction); also called hPSMA
# Test: flow cytometry of phage scFv clones after cell panning on Jurkat-PSMA (parental Jurkat as negative selection)
# Source text: A collection of human scFv antibody phage display libraries (diversity=10×10¹⁰) constructed by Eureka Therapeutics (i.e., the E-ALPHA® phage display library) was used for the selection of human mAbs specific to PSMA. Specifically, the E-ALPHA® phage display library was used to pan against a Jurkat cell line that has been engineered to express PSMA. The parental Jurkat cell line was used for negative selection. […] The VL in each scFv is underlined, the VH in each scFv is double underlined, and the linker is in bold italic type. The CDRs are in underlined bold type and double underlined bold type.
# T1 sequence (Q04609 whole entry): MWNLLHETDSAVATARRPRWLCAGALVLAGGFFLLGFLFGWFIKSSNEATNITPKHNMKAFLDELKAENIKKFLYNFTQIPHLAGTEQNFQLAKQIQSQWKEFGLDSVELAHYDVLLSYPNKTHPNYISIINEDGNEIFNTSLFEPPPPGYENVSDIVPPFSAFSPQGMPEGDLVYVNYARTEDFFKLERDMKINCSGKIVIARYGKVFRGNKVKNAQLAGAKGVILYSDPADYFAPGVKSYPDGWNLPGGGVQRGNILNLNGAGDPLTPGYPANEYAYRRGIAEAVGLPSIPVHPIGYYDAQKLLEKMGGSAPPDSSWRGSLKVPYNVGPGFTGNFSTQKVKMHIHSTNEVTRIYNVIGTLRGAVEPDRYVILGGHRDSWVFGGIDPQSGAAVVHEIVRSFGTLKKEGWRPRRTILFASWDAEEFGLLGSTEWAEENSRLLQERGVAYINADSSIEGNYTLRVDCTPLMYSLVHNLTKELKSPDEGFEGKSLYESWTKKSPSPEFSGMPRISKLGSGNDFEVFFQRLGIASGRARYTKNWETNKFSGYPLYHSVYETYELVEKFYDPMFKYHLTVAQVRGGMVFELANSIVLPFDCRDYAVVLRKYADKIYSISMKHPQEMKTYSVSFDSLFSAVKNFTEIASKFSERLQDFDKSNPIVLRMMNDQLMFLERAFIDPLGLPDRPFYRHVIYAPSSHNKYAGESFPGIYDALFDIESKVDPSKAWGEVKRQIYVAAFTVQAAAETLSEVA
binder,measurement,value
"Clone A anti-PSMA scFv (scFv, Human scFv (VL-linker-VH) isolated from the E-ALPHA phage display library; the phage coat fusion is not described; also called phage clone A) scFv: QSVLTQPPSVSGAPGQRVTISCTGSSSNIGAGYDVHWYQQLPGTAPKLLIYGNSNRPSGVPDRFSGSKSGTSASLAITGLQAEDEADYYCQSYDSSLSGYVFGTGTKVTVLGSRGGGGSGGGGSGGGGSLEMAEVQLVQSGAEVKKPGESLKISCKGSGYSFTSYWIGWVRQMPGKGLEWMGIIYPGDSDTRYSPSFQGQVTISADKSISTAYLQWSSLKASDTAMYYCARSMGSSLYASSDVWGQGTLVTVSS",binding result,binds
